Experimental data reported in article PMC5718245.
Blank lines part the entries; values can stand above or below the molecule they belong to.

Tests used:
[1] = target: PSD95 PDZ3 (Rattus norvegicus) (UniProt P31016); conditions: cited from earlier work
[2] = target: GST-PDZ3 fusion protein (PDZ3 domain of SAP97); test: SPR; Biacore3000; anti-GST antibody immobilised, GST-PDZ3 captured (1200-1700 RU), GST on the reference cell subtracted; peptides as analytes at 62.5 nM to 12.8 µM, 30 µl/min; HBS (0.01 M HEPES, 0.15 M NaCl, 3 mM EDTA, 0.005% Surfactant P20); steady-state affinity fit, 1:1 model

Chain of UniProt P31016 (P31016 310-396): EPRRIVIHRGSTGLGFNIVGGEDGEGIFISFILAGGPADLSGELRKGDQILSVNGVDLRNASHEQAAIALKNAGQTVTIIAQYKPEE

Molecule: CRIPT C-terminal 9 amino acids (from UniProt Q792Q4)
Kd [1]: 1 µM

Kd [2]: 6.57 µM
B1: peptide CHRK1 (C-terminal 18 amino acids of CRIPT) (peptide)
peptide: AMCGKKVLDTKNYKQTSV
